± gives the uncertainty stated by the source.
B1: DnaJ homolog subfamily C member 2, residues 451 to 503; numbered along this chain, Q99543 (parent)
chain: SKNWSEDDLQLLIKAVNLFPAGTNSRWEVIANYMNIHSSSGVKRTAKDVIGKA

Variants of: B1
Assay: abundance fitness (aPCA) (normalised: wild type 0, dead -1); higher = more abundant; growth selection in yeast, the domain comes from the species named
Conditions: Homo sapiens

Variant | abundance fitness
W4P | -0.828 ± 0.1
W4I | -0.465 ± 0.12
W4E | -0.825 ± 0.12
W4V | -0.908 ± 0.076
W4M | -0.06 ± 0.079
A53Q | -0.081 ± 0.22
A53P | -0.775 ± 0.46
A53S | -0.001 ± 0.14
L12Y | -0.168 ± 0.091
L12M | -0.223 ± 0.084
L12A | -0.617 ± 0.067
L12G | -0.779 ± 0.057
I50W | -0.085 ± 0.078
I50P | -0.632 ± 0.16
N32Q | -0.103 ± 0.089
N32C | -0.524 ± 0.11
D8M | -0.844 ± 0.12
D8Q | -0.559 ± 0.1
G51S | -0.014 ± 0.057
G51A | -0.019 ± 0.065
G51C | -0.142 ± 0.091
G51R | 0 ± 0.06
G51F | -0.136 ± 0.094
I30S | -0.947 ± 0.072

Variant | abundance fitness
I30V | -0.019 ± 0.057
I30E | -0.955 ± 0.076
I30T | -0.987 ± 0.12
R26H | -0.831 ± 0.46
A15V | -0.511 ± 0.072
A15R | -0.994 ± 0.08
A15E | -0.965 ± 0.11
A15N | -0.984 ± 0.13
A15M | -0.83 ± 0.13
Y33H | -0.414 ± 0.12
Y33G | -0.981 ± 0.072
Y33V | -0.847 ± 0.072
Y33K | -0.568 ± 0.11
G41W | -0.645 ± 0.077
G41Y | -0.25 ± 0.1
G41D | -0.066 ± 0.075
N24A | 0.14 ± 0.083
S5V | -0.676 ± 0.36
S5D | -0.676 ± 0.32
I13S | 0.073 ± 0.054
I13N | -0.097 ± 0.11
I13P | -0.537 ± 0.079
I13W | 0.058 ± 0.064
N17T | -0.016 ± 0.074

Variant | abundance fitness
N17Q | -0.157 ± 0.073
N17S | -0.061 ± 0.066
N17P | -0.875 ± 0.11
N17F | -0.353 ± 0.13
A31S | -0.179 ± 0.061
L11A | -0.712 ± 0.073
L11Y | -0.579 ± 0.093
L11P | -0.891 ± 0.087
L11Q | -0.632 ± 0.07
L11M | -0.229 ± 0.09
T23I | -0.226 ± 0.1
T23V | -0.302 ± 0.093
T23L | -0.221 ± 0.075
T23D | -0.165 ± 0.18
T23R | -0.649 ± 0.1
A21W | -0.244 ± 0.064
A21H | 0.083 ± 0.09
A21Q | 0.049 ± 0.088
A21C | -0.117 ± 0.082
W27F | -0.207 ± 0.1
W27M | -0.323 ± 0.089
W27E | -0.168 ± 0.077
W27P | -0.247 ± 0.082
W27R | -0.791 ± 0.061

Variant | abundance fitness
W27C | -0.261 ± 0.095
I36G | -0.009 ± 0.053
K43F | -0.179 ± 0.083
K43R | -0.045 ± 0.058
K43P | -0.209 ± 0.086
S40T | -0.166 ± 0.076
S40F | -0.559 ± 0.099
S40H | -0.125 ± 0.098
V29H | -0.096 ± 0.091
V29C | -0.071 ± 0.073
V29W | -0.082 ± 0.065
V29G | -0.026 ± 0.052
V29R | 0.043 ± 0.053
V29F | -0.32 ± 0.1
S38P | -0.936 ± 0.091
L9K | -0.043 ± 0.088
L9R | -0.054 ± 0.058
A46Q | -0.089 ± 0.097
A46K | -0.087 ± 0.095
A46E | -0.067 ± 0.086
A46C | -0.094 ± 0.077
S39P | 0.001 ± 0.08
M34G | -0.977 ± 0.062
M34R | -0.963 ± 0.065

Variant | abundance fitness
M34D | -0.833 ± 0.1
M34I | -0.011 ± 0.075
D7T | -0.005 ± 0.064
D7L | -0.047 ± 0.053
D7C | -0.889 ± 0.16
D7G | -0.015 ± 0.057
D7N | -0.114 ± 0.063
D7Y | -0.369 ± 0.094
N3L | -0.12 ± 0.062
N3H | -0.025 ± 0.11
N3K | -0.441 ± 0.092
E6L | -0.404 ± 0.17
E6P | 0.107 ± 0.33
E6M | -0.366 ± 0.16
E6D | -0.154 ± 0.16
K2S | -0.059 ± 0.079
K2H | -0.214 ± 0.14
K2Q | -0.375 ± 0.12
G22M | -0.371 ± 0.078
G22Q | -0.293 ± 0.079
G22S | 0.002 ± 0.059
G22E | 0.011 ± 0.067
G22D | -0.016 ± 0.078
D48Q | -0.105 ± 0.1

Variant | abundance fitness
D48K | -0.973 ± 0.16
D48M | -0.396 ± 0.095
D48S | -0.212 ± 0.067
D48P | -1.01 ± 0.12
S25T | -0.144 ± 0.092
S25I | -0.788 ± 0.15
S25W | -0.219 ± 0.096
S25Y | -0.281 ± 0.092
K47A | 0.054 ± 0.079
K47G | -0.039 ± 0.065
E28S | -0.013 ± 0.072
E28W | -0.592 ± 0.077
K52V | -0.181 ± 0.087
K52L | -0.385 ± 0.073
K52H | -0.126 ± 0.13
K52C | -0.033 ± 0.097
V49R | -0.888 ± 0.085
V49Q | -0.744 ± 0.16
V49S | -0.886 ± 0.094
V49P | -1.18 ± 0.14
V49A | -0.219 ± 0.065
P20Q | -0.328 ± 0.07
F19V | -0.102 ± 0.067
F19N | -0.803 ± 0.16

Variant | abundance fitness
F19Q | -0.86 ± 0.14
N35R | -0.59 ± 0.059
N35P | -1.08 ± 0.13
N35L | -1.07 ± 0.1
S1Y | -0.37 ± 0.14
S1C | -0.261 ± 0.097
S1F | -0.112 ± 0.14
S1T | -0.086 ± 0.093
Q10S | -0.163 ± 0.06
L18D | -0.332 ± 0.12
L18E | -0.305 ± 0.095
L18F | -0.219 ± 0.085
K14L | -0.317 ± 0.055
K14G | -0.243 ± 0.055
K14D | -0.054 ± 0.084
K14W | -0.602 ± 0.079
K14M | -0.226 ± 0.084
K14V | -0.196 ± 0.059
K14E | -0.096 ± 0.066
K14A | -0.026 ± 0.065
K14C | -0.274 ± 0.07
V16A | -0.164 ± 0.062
V16I | 0.08 ± 0.08
